Data on 1 molecule can be found in PMC8495968 (2021).

Ends that are not written are not given here. * marks the point of attachment. FITC = O=C1OC2(c3ccc(O)cc3Oc3cc(O)ccc32)c2ccc(NC(=S)*)cc21; Ahx = NCCCCCC(=O)O

The assay has as its target MCL-1 (Homo sapiens, UniProt Q07820). In words: fluorescence anisotropy direct titration. Background: Polarisation of emitted light reports the rotation of a fluorescent probe.

Sequence of MCL-1 (Q07820 whole entry): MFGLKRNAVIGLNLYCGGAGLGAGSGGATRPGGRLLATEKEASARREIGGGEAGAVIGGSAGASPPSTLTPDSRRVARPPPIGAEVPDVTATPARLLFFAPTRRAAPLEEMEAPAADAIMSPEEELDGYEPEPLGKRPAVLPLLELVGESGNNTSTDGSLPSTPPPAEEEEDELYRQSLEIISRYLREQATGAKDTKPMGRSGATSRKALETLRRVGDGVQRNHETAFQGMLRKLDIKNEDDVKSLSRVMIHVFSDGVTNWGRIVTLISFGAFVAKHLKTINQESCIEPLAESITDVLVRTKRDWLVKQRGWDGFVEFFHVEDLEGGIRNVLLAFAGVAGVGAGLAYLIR

Regarding {FITC-Ahx}-TRSPLFIFMRR [FITC-Ahx-BIM75–85 75-85], the dissociation constant (Kd) was 204 nM.

The Kd is the concentration at which binding is half-saturated. Low readings indicate tighter binding, high ones weaker binding.
